Measurements taken from patent US10428140B2, “Anti-EphA4 antibody” (EISAI R&D MANAGEMENT CO., LTD., priority 2015, dated 2019).

T1: human EphB1 (Homo sapiens, UniProt P54762)
T1 construct: a protein of the extracellular region of each human Eph receptor fused with the SEAP protein and the His tag; made in house; host or cells: Expi293F cells (culture supernatant)
T1 sequence (P54762 18-540 limits assumed): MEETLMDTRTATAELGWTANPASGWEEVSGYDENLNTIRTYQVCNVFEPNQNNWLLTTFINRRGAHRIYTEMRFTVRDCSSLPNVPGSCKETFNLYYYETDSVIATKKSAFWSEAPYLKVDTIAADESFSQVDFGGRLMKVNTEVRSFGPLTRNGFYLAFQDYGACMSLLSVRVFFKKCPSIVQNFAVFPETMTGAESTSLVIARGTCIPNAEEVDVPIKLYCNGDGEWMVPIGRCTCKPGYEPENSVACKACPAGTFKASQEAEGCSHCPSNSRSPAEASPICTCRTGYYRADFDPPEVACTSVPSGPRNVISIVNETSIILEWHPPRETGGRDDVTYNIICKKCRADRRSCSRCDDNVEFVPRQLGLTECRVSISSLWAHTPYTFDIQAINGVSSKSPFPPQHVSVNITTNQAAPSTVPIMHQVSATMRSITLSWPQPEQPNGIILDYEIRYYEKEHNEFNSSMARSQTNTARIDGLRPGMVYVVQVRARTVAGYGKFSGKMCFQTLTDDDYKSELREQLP

T2: human EphA8 (Homo sapiens, UniProt P29322)
T2 construct: a protein of the extracellular region of each human Eph receptor fused with the SEAP protein and the His tag; made in house; host or cells: Expi293F cells (culture supernatant)
T2 sequence (P29322 28-542 limits assumed): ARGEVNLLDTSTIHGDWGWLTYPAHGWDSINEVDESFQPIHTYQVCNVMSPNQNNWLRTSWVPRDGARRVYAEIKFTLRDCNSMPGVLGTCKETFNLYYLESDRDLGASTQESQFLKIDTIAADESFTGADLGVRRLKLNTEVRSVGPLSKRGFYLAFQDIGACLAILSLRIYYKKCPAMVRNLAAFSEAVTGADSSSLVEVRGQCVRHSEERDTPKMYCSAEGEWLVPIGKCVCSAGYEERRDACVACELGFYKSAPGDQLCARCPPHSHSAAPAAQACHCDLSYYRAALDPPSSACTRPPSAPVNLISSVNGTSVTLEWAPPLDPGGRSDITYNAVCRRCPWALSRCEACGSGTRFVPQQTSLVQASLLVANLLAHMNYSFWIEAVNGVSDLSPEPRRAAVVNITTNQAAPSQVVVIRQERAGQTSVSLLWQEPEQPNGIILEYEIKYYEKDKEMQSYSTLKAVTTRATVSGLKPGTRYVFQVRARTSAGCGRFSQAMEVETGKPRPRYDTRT

T3: human EphB6 (Homo sapiens, UniProt O15197)
T3 construct: a protein of the extracellular region of each human Eph receptor fused with the SEAP protein and the His tag; made in house; host or cells: Expi293F cells
T3 sequence (O15197 32-594 limits assumed): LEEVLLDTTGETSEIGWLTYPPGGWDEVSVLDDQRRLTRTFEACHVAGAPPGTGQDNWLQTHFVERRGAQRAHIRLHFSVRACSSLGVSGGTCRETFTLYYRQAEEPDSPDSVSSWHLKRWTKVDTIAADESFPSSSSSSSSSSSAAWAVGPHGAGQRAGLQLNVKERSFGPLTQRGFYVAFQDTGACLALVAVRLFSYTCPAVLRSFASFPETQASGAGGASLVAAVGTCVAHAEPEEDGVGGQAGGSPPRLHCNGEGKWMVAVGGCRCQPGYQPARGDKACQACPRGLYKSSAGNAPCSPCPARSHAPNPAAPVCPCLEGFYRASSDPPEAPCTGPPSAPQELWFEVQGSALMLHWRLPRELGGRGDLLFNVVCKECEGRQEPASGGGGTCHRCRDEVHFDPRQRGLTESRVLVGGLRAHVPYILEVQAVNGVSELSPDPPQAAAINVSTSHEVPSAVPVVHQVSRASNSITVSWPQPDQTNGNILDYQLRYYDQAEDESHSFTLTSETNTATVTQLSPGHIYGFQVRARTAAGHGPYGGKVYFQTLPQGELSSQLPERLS


Tests used:
Test in all cases: Selectivity ELISA of humanized antibodies for human Eph receptor
Assay type in all cases: binding
Settings in all cases: coated protein 1 nM
human EphB1 = molecular target: T1, human EphB1
Excerpt: (§1) According to the method described in Example 7, a DNA sequence encoding the signal sequence and the extracellular region of each human Eph receptor (EphA1, EphA2, EphA3, EphA4, EphA5, EphA6, EphA7, EphA8, EphA10, EphB1, EphB2, EphB3, EphB4, and EphB6) was amplified by RT-PCR using tissue-derived total RNA and cloned into a pENTR1A vector (Invitrogen/Life Technologies) having a DNA sequence encoding SEAP protein and histidine tag. Next, the DNA sequence encoding the signal sequence and the extracellular region of each human Eph receptor, SEAP protein, and histidine tag was transferred to a pcDNA3.1_rfcB vector through LR reaction using Gateway System (Invitrogen/Life Technologies) to construct a vector for the expression of a protein of the extracellular region of each human Eph receptor fused with the SEAP protein and the His tag (referred to as “Eph receptor extracellular region-SEAP-His protein”) (this vector is referred to as “Eph receptor extracellular region-SEAP-His protein expression vector”).
(§2) Next, each human Eph receptor extracellular region-SEAP-His protein expression vector was transferred to Expi293F cells (Gibco/Thermo Fisher Scientific) using Expi293 expression system (Gibco/Thermo Fisher Scientific). After incubation (5% CO2, 37° C.) for 5 days, the culture supernatant was recovered and centrifuged at 1500 rpm at room temperature for 5 minutes. The centrifugation supernatant was filtered through a 0.45-μm filter (Merck Millipore).
(§3) Each anti-EphA4 monoclonal humanized antibody obtained in Example 16 was evaluated for its binding activity against each human Eph receptor according to the following steps.
(§4) Each well of a 96-well plate (Nunc) was coated with a rabbit anti-6-His antibody (Bethyl Laboratories). Each well was […] After washing with 0.05% Tween 20/PBS (Nacalai Tesque) three times, the SEAP-His protein of human EphA1, EphA2, EphA3, EphA4, EphA5, EphA6, EphA7, EphA8, EphA10, EphB1, EphB2, EphB3, EphB4, or EphB6 was added (final concentration: 1 nM) to each well and incubated at room temperature for 1 hour. After washing three times, the humanized antibody was added to each well and incubated at room temperature for 1 hour. After washing three times, a horseradish peroxidase-labeled donkey […] IgG antibody (Jackson ImmunoResearch Laboratories) was added thereto and incubated at room temperature for 1 hour. After washing three times, TMB Microwell Peroxidase Substrate System (Kirkegaard & Perry Laboratories (KPL)) was added to each well. After confirmation of moderate color development, an equal amount of a reaction stopping solution (1N H2SO4, Wako Pure Chemical Industries) was added to each well. The absorbance at 450 nm was read using a microplate reader (Thermo Fisher Scientific).

human EphA8 = molecular target: T2, human EphA8
Excerpt: as §1, §2, §3, §4

human EphB6 = molecular target: T3, human EphB6
Excerpt: as §1, §2, §3, §4

human EphA5 = molecular target: T4, human EphA5 (Homo sapiens, UniProt P54756)
T4 construct: a protein of the extracellular region of each human Eph receptor fused with the SEAP protein and the His tag; made in house; host or cells: Expi293F cells (culture supernatant)
T4 sequence (P54756 25-573 limits assumed): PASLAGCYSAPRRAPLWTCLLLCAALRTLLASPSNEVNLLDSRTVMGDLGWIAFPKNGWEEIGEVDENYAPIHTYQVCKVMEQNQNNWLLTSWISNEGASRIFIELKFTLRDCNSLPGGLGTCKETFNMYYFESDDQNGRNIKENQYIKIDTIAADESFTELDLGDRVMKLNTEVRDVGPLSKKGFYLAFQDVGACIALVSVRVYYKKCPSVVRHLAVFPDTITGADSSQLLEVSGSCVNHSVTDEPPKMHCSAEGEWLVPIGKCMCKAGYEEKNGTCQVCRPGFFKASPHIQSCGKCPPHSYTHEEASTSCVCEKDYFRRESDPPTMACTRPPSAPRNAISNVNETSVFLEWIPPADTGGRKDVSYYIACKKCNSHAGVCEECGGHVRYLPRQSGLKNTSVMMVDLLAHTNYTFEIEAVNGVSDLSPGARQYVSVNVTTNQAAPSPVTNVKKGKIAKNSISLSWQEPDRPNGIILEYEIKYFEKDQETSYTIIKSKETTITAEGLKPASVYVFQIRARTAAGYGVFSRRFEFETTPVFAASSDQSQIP
Excerpt: as §1, §2, §3, §4

hEphB1-SEAP-: absorbance at 450 nm, percentage with respect to hEphA4-SEAP-His as 100% (human EphB1) | hEphA8-SEAP-: absorbance at 450 nm, percentage with respect to hEphA4-SEAP-His as 100% (human EphA8) | hEphB6-SEAP-: absorbance at 450 nm, percentage with respect to hEphA4-SEAP-His as 100% (human EphB6) | hEphA5-SEAP-: absorbance at 450 nm, percentage with respect to hEphA4-SEAP-His as 100% (human EphA5) | Molecule
5.7% | 5.7% | 4.8% | 5.8% | 89 (antibody, V domains shown, constant regions without entry; synthetic humanized antibody light chain variable region sequence; synthetic humanized antibody heavy chain variable region sequence) VL: DIQMTQSPSSLSASVGDRVTITCRASENIYRNLAWYQQKPGKAPQLLLYAATNLADGVPSRFSGSGSGTDYTLTISSLQPEDFATYYCQHFWGTPWTFGQGTKVEIK VH: QIQLVQSGSELKKPGASVKVSCKASGYTFTDYSMHWVRQAPGQGLKWMGWINTETGEPTYAQGFTGRFVFSLDTSVSTAYLQISSLKAEDTAVYYCARIPLYYYGSRYWYFDVWGQGTTVTVSS
6.9% | 6.7% | 6.5% | 6.8% | 92 (antibody, V domains shown, constant regions without entry; synthetic humanized antibody light chain variable region sequence; synthetic humanized antibody heavy chain variable region sequence) VL: DIQMTQSPSSLSASVGDRVTITCRASENIYRNLAWYQQKPGKAPQLLLYAATNLADGVPSRFSGSGSGTDYTLTISSLQPEDFATYYCQHFWGTPWTFGQGTKVEIK VH: QIQLVQSGSELKKPGASVKVSCKASGYTFTDYSMHWVRQAPGQGLKWMGWINTETGEPTYADDFKGRFVFSLDTSVSTAYLQISSLKAEDTAVYYCARIPLYYYGSRYWYFDVWGQGTTVTVSS
4.9% | 5.4% | 5.2% | 5.1% | 90 (antibody, V domains shown, constant regions without entry; synthetic humanized antibody light chain variable region sequence; synthetic humanized antibody heavy chain variable region sequence) VL: DIQMTQSPSSLSASVGDRVTITCRASENIYRNLAWYQQKPGKAPQLLLYAATNLADGVPSRFSGSGSGTDYTLTISSLQPEDFATYYCQHFWGTPWTFGQGTKVEIK VH: QVQLVQSGSELKKPGASVKVSCKASGYTFTDYSMHWVRQAPGQGLEWMGWINTETGEPTYADDFKGRFVFSLDTSVSTAYLQISSLKAEDTAVYYCARIPLYYYGSRYWYFDVWGQGTTVTVSS
6.6% | 6.2% | 6.3% | 6.4% | 91 (antibody, V domains shown, constant regions without entry; synthetic humanized antibody light chain variable region sequence; synthetic humanized antibody heavy chain variable region sequence) VL: DIQMTQSPSSLSASVGDRVTITCRASENIYRNLAWYQQKPGKAPQLLLYAATNLADGVPSRFSGSGSGTDYTLTISSLQPEDFATYYCQHFWGTPWTFGQGTKVEIK VH: QVQLVQSGSELKKPGASVKVSCKASGYTFTDYSMHWVRQAPGQGLKWMGWINTETGEPTYADDFKGRFVFSLDTSVSTAYLQISSLKAEDTAVYYCARIPLYYYGSRYWYFDVWGQGTTVTVSS
